# Test results published in PMC5861430 (Nucleic Acids Research, 2018).
# T1: GST-APE2 (Xenopus laevis, UniProt Q6DDT4 1-517)
# T1 sequence (looked up): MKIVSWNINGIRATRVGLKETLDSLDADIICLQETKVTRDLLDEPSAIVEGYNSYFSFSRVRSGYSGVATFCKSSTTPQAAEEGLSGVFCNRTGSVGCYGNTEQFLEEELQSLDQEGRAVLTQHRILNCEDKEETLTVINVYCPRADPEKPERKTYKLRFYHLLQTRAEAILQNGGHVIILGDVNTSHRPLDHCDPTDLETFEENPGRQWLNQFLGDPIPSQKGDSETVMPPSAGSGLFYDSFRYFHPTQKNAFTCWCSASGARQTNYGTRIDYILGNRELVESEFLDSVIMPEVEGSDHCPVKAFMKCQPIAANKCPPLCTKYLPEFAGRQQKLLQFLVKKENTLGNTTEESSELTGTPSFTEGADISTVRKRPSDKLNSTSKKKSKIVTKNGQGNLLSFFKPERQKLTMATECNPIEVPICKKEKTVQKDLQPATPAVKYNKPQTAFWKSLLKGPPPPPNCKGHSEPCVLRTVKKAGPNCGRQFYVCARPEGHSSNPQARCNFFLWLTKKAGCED
# B1: WT His-tagged PCNA (natural protein, Xenopus laevis, UniProt P18248 1-261, looked up)
# chain: MFEARLVQGSILKKVLEALKDLIDEACWDITSSGISLQSMDSSHVSLVQLTLRSDGFDTYRCDRNQSIGVKMSSMSKILKCAASDDIITLRAEDNADTVTMVFESPNQEKVSDYEMKLMDLDVEQLGIPEQEYSCVIKMPSGEFARICRDLSQIGDAVVISCAKDGVKFSASGELGTGNVKLSQTSNVDKEEEAVTIEMNEPVQLTFALRYLNFFTKATPLSPTVILSMSADIPLVVEYKIADMEHVKYYLAPKIEDEEAS
# B2: GST-APE2-ZF (domain or fragment, Xenopus laevis, UniProt Q6DDT4 456-517, looked up)
# chain: GPPPPPNCKGHSEPCVLRTVKKAGPNCGRQFYVCARPEGHSSNPQARCNFFLWLTKKAGCED
# Tests used:
# Test in all cases: pull-down
# GST-APE2 = biological target: T1, GST-APE2
# [1] = biological target: PK PCNA (P253A-K254A PCNA) (Xenopus laevis, UniProt P18248 1-261, P253A | K254A)
# WT His-tagged PCNA = biological target: B1
binder,measurement,setting,value
B1,binding result,GST-APE2,binds
B2,binding result,[1],binds
same,binding result,WT His-tagged PCNA,binds
